The values that follow come from US20210061908A1 (IOMX THERAPEUTICS, published 2021).

To fix the notation:
B1: human IGSF11 (VSIG3) expressed on the surface of cells (receptor)
chain: LEVSESPGSIQVARGQPAVLPCTFTTSAALINLNVIWMVTPLSNANQPEQVILYQGGQMFDGAPRFHGRVGFTGTMPATNVSIFINNTQLSDTGTYQCLVNNLPDIGGRNIGVTGLTVLVPPSAPHCQIQGSQDIGSDVILLCSSEEGIPRPTYLWEKLDNTLKLPPTATQDQVQGTVTIRNISALSSGLYQCVASNAIGTSTCLLDLQVISPQPRNIGLIAGAIGTGAVIIIFCIALILGAFFYWRSKNKEEEEEEIPNEIREDDLPPKCSSAKAFHTEISSSDNNTLTSSNAYNSRYWSNNPKVHRNTESVSHFSDLGQSFSFHSGNANIPSIYANGTHLVPGQHKTLVVTANRGSSPQVMSRSNGSVSRKPRPPHTHSYTISHATLERIGAVPVMVPAQSRAGSLV
notes: one molecule for all cell lines; the cell line is named under assay; also called IGSF11-expressing cells; HEK-OE
B2: B-002 (chain-swapped, human IgG1 format) (antibody, V domains shown)
VH: EVQLVESGGGLIQPGGSLRLSCAASGFTVSSNYMSWVRQAPGKGLEWVSVIYSGGSTYYADSVKGRFTISRDNSKNTLYLQMNSLRAEDTAVYYCARGNPYYYGDLQVNFDYWGQGTLVTVSS
VL: QAVVTQEPSLTVSPGGTVTLTCASSTGAVTSGYYPNWFQQKPGQAPRALIYSTSNKHSWTPARFSGSLLGGKAALTLSGVQPEDEAEYYCLLYYGGAWVFGGGTKLTVL
notes: VH of A-006 with VL of A-012; IgG1 format; also called B2; Chains-B-002
B3: B-004 (chain-swapped, human IgG1 format) (antibody, V domains shown)
VH: B2 VH with V5L, A24V
VL: B2 VL with A48P, E83D, A97D
notes: VH of A-012 with VL of A-006; IgG1 format; also called B4; Chains-B-004
B4: A-012 (human IgG1 format) (antibody, V domains shown)
VH: B2 VH with V5L, A24V
VL: B2 VL
notes: human IgG1 format
B5: B-001 (chain-swapped, human IgG1 format) (antibody, V domains shown)
VH: B2 VH with V5L, A24V
VL: B2 VL with G32A, E87D
notes: VH of A-012 with VL of A-013; IgG1 format; also called B1; Chains-B-001
B6: B-006 (chain-swapped, human IgG1 format) (antibody, V domains shown)
VH: B2 VH
VL: B2 VL with G16E, K41R, H57D
notes: VH of A-006 with VL of A-005; IgG1 format; also called B6; Chains-B-006
B7: A-006 (human IgG1 format) (antibody, V domains shown)
VH: B2 VH
VL: B2 VL with A48P, E83D, A97D
notes: human IgG1 format

Experiment [1] deals with T1, A-015 (scFv-Fc format, mouse IgG2A Fc).
T1 construct: scFv genetically fused to mouse IgG2A Fc, expressed in HEK293; also called scFv-Fc-format of antibody A-015; anti-IGSF11 scFv-Fc (mouse IgG2A)
T1 sequence (VH, as listed by the source, chain 1 of 2): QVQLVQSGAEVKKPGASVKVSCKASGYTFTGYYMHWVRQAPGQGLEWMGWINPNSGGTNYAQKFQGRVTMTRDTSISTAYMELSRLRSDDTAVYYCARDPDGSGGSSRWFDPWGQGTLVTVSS
T1 sequence (VL, as listed by the source, chain 2 of 2): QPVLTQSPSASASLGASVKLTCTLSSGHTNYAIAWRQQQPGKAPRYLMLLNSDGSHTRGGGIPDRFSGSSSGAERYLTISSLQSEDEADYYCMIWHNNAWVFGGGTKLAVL
The experiment is described as follows: FACS on CD14-gated monocytes from PBMC of healthy donor A, 30 min at 4 C, fluorescently labelled secondary antibody.

For experiment [2], the target named is B1. As to the kind of experiment: FACS on M579-A2-luc cells treated with scrambled control siRNA (SC).
The target in experiment [3] is T2, extracellular domain (ECD) of human IGSF11 (VSIG3), HIS-tagged (human, UniProt Q5DX21 23-241, biotinylated in the ELISA of Example 4 (site not stated)).
T2 construct: also called HIS-IGSF11; IGSF11-HIS; not shown: HIS6 tag
T2 sequence: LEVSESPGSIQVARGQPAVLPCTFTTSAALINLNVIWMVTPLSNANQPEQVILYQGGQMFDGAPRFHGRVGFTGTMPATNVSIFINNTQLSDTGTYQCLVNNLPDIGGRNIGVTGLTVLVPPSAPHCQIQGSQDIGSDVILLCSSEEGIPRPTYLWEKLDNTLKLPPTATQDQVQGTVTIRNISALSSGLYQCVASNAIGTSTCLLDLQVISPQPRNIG
The experiment is described as follows: blocking ELISA (Example 5): IgG titrated and pre-incubated with 200 nM his-tagged IGSF11 ECD, complexes added to immobilised VSIR-Fc, bound IGSF11 detected with anti-hexahistidine-HRP; blocked ligand: VSIR-Fc [B].

Experiment [4] has as its target B1. The experiment is described as follows: FACS, IgG1 format, recombinant HEK cells expressing IGSF11 (HEK-OE). (In flow cytometry, cells or beads pass a laser one at a time.)
The target in experiment [5] is T2, extracellular domain (ECD) of human …. As to the kind of experiment: ELISA: IGSF11-HIS coated, IgG1 antibody titrated, anti-human antibody-HRP and TMB; X-axis nM and Y-axis absorbance per legend paragraph 30 [B].
The target of experiment [6] is CL-11 (C). As to the kind of experiment: FACS on CL-11 cells (do not express IGSF11; negative cell line) treated with IGSF11 siRNA (KD).
Experiment [7] deals with B1. The experiment is described as follows: FACS on DMS 273 cells treated with scrambled control siRNA (SC).
The target of experiment [8] is B1. As to the kind of experiment: FACS, IgG1 format, DMS 273 cells.
Experiment [9] has as its target B1. The experiment is described as follows: FACS on M579-A2-luc cells treated with IGSF11 siRNA (KD: target knocked down, specificity control).
The target of experiment [10] is B1. As to the kind of experiment: FACS on DMS 273 cells treated with IGSF11 siRNA (KD: target knocked down, specificity control).
Experiment [11] deals with T3, IGSF11 (VSIG3), construct used in SPR and BLI not stated (UniProt Q5DX21 23-241, limits assumed).
T3 sequence (looked up): T2 sequence
As to the kind of experiment: SPR (Biacore), chain-swapped IgG1; IGSF11 construct not stated.

For experiment [12], the target named is CL-11 (C). The experiment is described as follows: FACS on CL-11 cells (do not express IGSF11; negative cell line) treated with scrambled control siRNA (SC).
In experiment [13] the target is T2, extracellular domain (ECD) of human …. As to the kind of experiment: ELISA, coated IGSF11-HIS, IgG1 format; EC50 grade (* >1 nM, ** 0.05-1 nM, *** 0.02-0.05 nM, **** <0.02 nM). For orientation: ELISA stands for enzyme-linked immunosorbent assay.
Experiment [14] shares this target. As to the kind of experiment: ELISA: IGSF11-HIS coated, IgG1 antibody titrated, anti-human antibody-HRP and TMB; X-axis nM and Y-axis absorbance per legend paragraph 30.
The target in experiment [15] is T3, IGSF11 (VSIG3), construct used in SPR …. The experiment is described as follows: BLI (Octet), IgG1 format; IGSF11 construct not stated. For orientation: Biolayer interferometry detects binding as a change in optical thickness at a sensor tip.
The target is the same in experiment [16]. As to the kind of experiment: SPR (Biacore), IgG1 format; IGSF11 construct not stated.
The target in experiment [17] is T2, extracellular domain (ECD) of human …. As to the kind of experiment: blocking ELISA (Example 5): IgG titrated and pre-incubated with 200 nM his-tagged IGSF11 ECD, complexes added to immobilised VSIR-Fc, bound IGSF11 detected with anti-hexahistidine-HRP; blocked ligand: VSIR-Fc.
The target is the same in experiment [18]. The experiment is described as follows: ELISA: IGSF11-HIS coated, IgG1 antibody titrated, anti-human antibody-HRP and TMB; X-axis nM and Y-axis absorbance per legend paragraph 30. This is another data set of the same source.
Experiment [19] has the same target. The experiment is described as follows: blocking ELISA (Example 5): IgG titrated and pre-incubated with 200 nM his-tagged IGSF11 ECD, complexes added to immobilised VSIR-Fc, bound IGSF11 detected with anti-hexahistidine-HRP; blocked ligand: VSIR-Fc. This is another data set of the same source.

Residue numbers refer to the chain shown, from its start.

With B1, the binding result in experiment [1] is listed as “binds”.
In the case of B2, the percentage binding in experiment [2] was found to be 70.7%; in the experiment with CL-11 (C) [6], 4.54%; in experiment [7], 80.1%; in experiment [9], 2.77%; in experiment [10], 8.68%; with CL-11 (C) [12], 3%. The “IC50 (read off the curve)” value in [3] was approximately 4 nM. For the same molecule, the EC50 (commonly the concentration that produces a half-maximal response) in [4] is 10 to 50 nM; in experiment [8], more than 50 nM. Moreover, the EC50 (read off the curve) (in general, the midpoint of the concentration-response curve) in [5] was approximately 0.01 nM. In addition, in experiment [11], the Kd – broadly, the concentration at which binding is half-saturated – was in the range of 100 to 250 nM.
Turning to B3, the “IC50 (read off the curve)” value in [3] is approximately 5 nM. For the same molecule, the “EC50 (read off the curve)” value in experiment [5] is approximately 0.02 nM.
Consider B4, for which the percentage binding in experiment [2] was 65.4%; with CL-11 (C) [6], 3.93%; in experiment [7], 75.8%; in [9], 2.35%; in experiment [10], 4.77%; in the experiment with CL-11 (C) [12], 5.11%. The EC50 is 0.02 to 0.05 nM in experiment [13], 10 to 50 nM in [4] and 10 to 50 nM in [8]. Besides, the “EC50 (read off the curve)” value in experiment [14] is approximately 8 pM. Further, the Kd lay within 1 to 10 nM in [15] and 250 to 500 nM in experiment [16]. Besides, the “IC50 (read off the curve)” value in experiment [17] was approximately 2 nM.
Take B5: the EC50 in experiment [4] fell in the range of 10 to 50 nM. In experiment [17], the “IC50 (read off the curve)” value is approximately 2 nM. Besides, the equilibrium dissociation constant (Kd) in experiment [11] lay in the range of 250 to 500 nM.
For the molecule B6, the “EC50 (read off the curve)” value in experiment [18] is approximately 0.02 nM. In experiment [19], the “IC50 (read off the curve)” value is approximately 5 nM.
For the molecule B7, the percentage binding in [2] was 75.3%; in the experiment with CL-11 (C) [6] it was 3.04%; in [7], 81.1%; in [9] it was 2.59%; in experiment [10], 5.72%; with CL-11 (C) [12], 2.31%. Also, the EC50 in experiment [13] is less than 0.02 nM; in experiment [4] it was 10 to 50 nM; in experiment [8], more than 50 nM. The Kd in [15] lay within 1 to 10 nM; in [16], 250 to 500 nM.
